target: c-Src SH2; assay: SH2 binding enrichment of the phosphorylated peptide, bacterial display (enrichment ratio); higher = better substrate or ligand; peptides without Tyr show the background
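Throughout, for SH2 binding enrichment of the phosphorylated peptide, bacterial display: peptide library displayed on the E. coli surface as eCPX fusions, selected cells deep-sequenced, score is each peptide's frequency after selection divided by its frequency in the input.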
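Throughout, for phosphorylation enrichment, bacterial display: 11-residue human phosphosite peptides and single-mutation variants displayed on the E. coli surface, counted by deep sequencing, each peptide's frequency after selection divided by its frequency in the unselected input library; frequency after pTyr selection over input frequency; kinase dosed for 20-30% of maximal phosphorylation in three min.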

| Sequence | SH2 binding enrichment |
| --- | --- |
| LKGQVYILGGE [ASS1_Y359_R363G] | 0.529 |
| IKIMGYFIRTI [IDS_Y490_S491F] | 1.04 |
| EMFNPYFGLFE [NEDD4L_Y679_YF] | 0.743 |
| ATPSRYMTFLH [DYNC2H1_Y2872] | 1.32 |
| YGTAQYCCRMG [LRRK2_Y2023_I2020T] | 0.823 |
| QKTGDYYDLYG [PTPN11_Y62_N58K] | 1.38 |
| KRNSLYSFSDH [CCDC82_Y331_Q327R] | 0.548 |
| PSQRRYVYYYS [PTEN_Y174] | 2.25 |
| RNLLIYTEFGK [HGD_Y166_G161R] | 0.457 |
| SVGGCYEQLFV [MC4R_Y41_D37V] | 0.76 |
| RWHEGYRQTPR [CD44_Y412_K417R] | 1.7 |
| HNLDYYKKTTN [FGFR3_Y648] | 0.591 |
| TTKGAYSLSIR [YES1_Y194] | 0.792 |
| KRRGPYEMSPS [PLPP7_Y172_T174M] | 0.456 |
| KGEDFYCVTCP [FHL1_Y149_H154P] | 1.04 |
| TRSFKCLLLSM [NF1_Y491_Y491C_YF] | 0.912 |
| HYPDVYAWEQL [ALX3_Y181_R183W] | 0.723 |

| Sequence | SH2 binding enrichment |
| --- | --- |
| EILLSYLRTGY [TGM1_Y365] | 0.845 |
| QRDSSYFWEIE [RAF1_Y340_YF] | 0.98 |
| WSQAMYPDLGP [STARD8_Y330_R327Q] | 0.774 |
| AKKKMYSHKTK [AGXT_Y231_R233H] | 1.34 |
| GRKTLYSFFSP [UNG_Y8_Q4R] | 1.17 |
| GSERRYSREGG [PTPRN2_Y139] | 0.475 |
| KACKHYLTTRT [ZBTB5_Y118] | 1.43 |
| GQLIFYAPPEW [CNTN6_Y315] | 0.781 |
| IDFARYWHGDD [MMP11_Y162] | 0.674 |
| VSFDEYRFRSF [CFTR_Y515_V520F_YF] | 0.393 |
| QLATEYVFSDF [PANX1_Y10] | 0.511 |
| YRRITYHNWRH [PDE6B_Y556] | 0.453 |
| VTRANYFIRDE [GNAS_Y339_K338N] | 0.434 |
| FIGRIYLFLTK [GARS1_Y414_YF] | 0.879 |
| DKTGEYPVPLT [ACADM_Y73_I78T] | 0.474 |
| KNKKDYYDMYE [SLC26A3_Y526] | 1.03 |

target: Grb2 SH2 (UniProt P62993); assay: as above
Sequence (P62993 whole entry, looked up): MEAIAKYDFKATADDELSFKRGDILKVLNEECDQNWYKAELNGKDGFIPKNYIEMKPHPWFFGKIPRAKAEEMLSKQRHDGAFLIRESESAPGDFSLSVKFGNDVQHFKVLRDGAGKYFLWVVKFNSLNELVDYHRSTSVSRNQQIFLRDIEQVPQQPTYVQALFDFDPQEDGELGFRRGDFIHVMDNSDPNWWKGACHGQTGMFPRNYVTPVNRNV

| Sequence | SH2 binding enrichment |
| --- | --- |
| LKGQVYILGGE [ASS1_Y359_R363G] | 0.952 |
| IKIMGYFIRTI [IDS_Y490_S491F] | 1.82 |
| EMFNPYFGLFE [NEDD4L_Y679_YF] | 1.53 |
| ATPSRYMTFLH [DYNC2H1_Y2872] | 0.757 |
| YGTAQYCCRMG [LRRK2_Y2023_I2020T] | 0.991 |
| QKTGDYYDLYG [PTPN11_Y62_N58K] | 0.899 |
| KRNSLYSFSDH [CCDC82_Y331_Q327R] | 0.89 |
| PSQRRYVYYYS [PTEN_Y174] | 1.55 |
| RNLLIYTEFGK [HGD_Y166_G161R] | 0.94 |
| SVGGCYEQLFV [MC4R_Y41_D37V] | 0.862 |
| RWHEGYRQTPR [CD44_Y412_K417R] | 1.43 |
| HNLDYYKKTTN [FGFR3_Y648] | 0.732 |
| TTKGAYSLSIR [YES1_Y194] | 1.36 |
| KRRGPYEMSPS [PLPP7_Y172_T174M] | 0.532 |
| KGEDFYCVTCP [FHL1_Y149_H154P] | 1.01 |
| TRSFKCLLLSM [NF1_Y491_Y491C_YF] | 1.11 |
| HYPDVYAWEQL [ALX3_Y181_R183W] | 0.716 |

| Sequence | SH2 binding enrichment |
| --- | --- |
| EILLSYLRTGY [TGM1_Y365] | 1.17 |
| QRDSSYFWEIE [RAF1_Y340_YF] | 0.936 |
| WSQAMYPDLGP [STARD8_Y330_R327Q] | 1.07 |
| AKKKMYSHKTK [AGXT_Y231_R233H] | 1.44 |
| GRKTLYSFFSP [UNG_Y8_Q4R] | 1.57 |
| GSERRYSREGG [PTPRN2_Y139] | 0.678 |
| KACKHYLTTRT [ZBTB5_Y118] | 1.7 |
| GQLIFYAPPEW [CNTN6_Y315] | 1.09 |
| IDFARYWHGDD [MMP11_Y162] | 0.843 |
| VSFDEYRFRSF [CFTR_Y515_V520F_YF] | 0.834 |
| QLATEYVFSDF [PANX1_Y10] | 0.895 |
| YRRITYHNWRH [PDE6B_Y556] | 1.15 |
| VTRANYFIRDE [GNAS_Y339_K338N] | 0.984 |
| FIGRIYLFLTK [GARS1_Y414_YF] | 1.57 |
| DKTGEYPVPLT [ACADM_Y73_I78T] | 0.924 |
| KNKKDYYDMYE [SLC26A3_Y526] | 0.962 |

target: SHP2-C SH2; assay: as above

| Sequence | SH2 binding enrichment |
| --- | --- |
| LKGQVYILGGE [ASS1_Y359_R363G] | 0.812 |
| IKIMGYFIRTI [IDS_Y490_S491F] | 1.5 |
| EMFNPYFGLFE [NEDD4L_Y679_YF] | 1.1 |
| ATPSRYMTFLH [DYNC2H1_Y2872] | 8.55 |
| YGTAQYCCRMG [LRRK2_Y2023_I2020T] | 0.752 |
| QKTGDYYDLYG [PTPN11_Y62_N58K] | 1.04 |
| KRNSLYSFSDH [CCDC82_Y331_Q327R] | 0.846 |
| PSQRRYVYYYS [PTEN_Y174] | 4.7 |
| RNLLIYTEFGK [HGD_Y166_G161R] | 0.194 |
| SVGGCYEQLFV [MC4R_Y41_D37V] | 0.633 |
| RWHEGYRQTPR [CD44_Y412_K417R] | 1.23 |
| HNLDYYKKTTN [FGFR3_Y648] | 0.554 |
| TTKGAYSLSIR [YES1_Y194] | 0.434 |
| KRRGPYEMSPS [PLPP7_Y172_T174M] | 0.344 |
| KGEDFYCVTCP [FHL1_Y149_H154P] | 0.644 |
| TRSFKCLLLSM [NF1_Y491_Y491C_YF] | 0.787 |
| HYPDVYAWEQL [ALX3_Y181_R183W] | 0.928 |

| Sequence | SH2 binding enrichment |
| --- | --- |
| EILLSYLRTGY [TGM1_Y365] | 1.14 |
| QRDSSYFWEIE [RAF1_Y340_YF] | 0.917 |
| WSQAMYPDLGP [STARD8_Y330_R327Q] | 0.766 |
| AKKKMYSHKTK [AGXT_Y231_R233H] | 1.42 |
| GRKTLYSFFSP [UNG_Y8_Q4R] | 0.978 |
| GSERRYSREGG [PTPRN2_Y139] | 0.646 |
| KACKHYLTTRT [ZBTB5_Y118] | 1.4 |
| GQLIFYAPPEW [CNTN6_Y315] | 0.963 |
| IDFARYWHGDD [MMP11_Y162] | 0.878 |
| VSFDEYRFRSF [CFTR_Y515_V520F_YF] | 0.715 |
| QLATEYVFSDF [PANX1_Y10] | 0.679 |
| YRRITYHNWRH [PDE6B_Y556] | 0.553 |
| VTRANYFIRDE [GNAS_Y339_K338N] | 0.8 |
| FIGRIYLFLTK [GARS1_Y414_YF] | 1.22 |
| DKTGEYPVPLT [ACADM_Y73_I78T] | 0.522 |
| KNKKDYYDMYE [SLC26A3_Y526] | 0.937 |

target: EPHB2 (UniProt P29323); assay: phosphorylation enrichment, bacterial display (enrichment ratio); higher = better substrate or ligand; peptides without Tyr show the background
Sequence (P29323 whole entry, looked up): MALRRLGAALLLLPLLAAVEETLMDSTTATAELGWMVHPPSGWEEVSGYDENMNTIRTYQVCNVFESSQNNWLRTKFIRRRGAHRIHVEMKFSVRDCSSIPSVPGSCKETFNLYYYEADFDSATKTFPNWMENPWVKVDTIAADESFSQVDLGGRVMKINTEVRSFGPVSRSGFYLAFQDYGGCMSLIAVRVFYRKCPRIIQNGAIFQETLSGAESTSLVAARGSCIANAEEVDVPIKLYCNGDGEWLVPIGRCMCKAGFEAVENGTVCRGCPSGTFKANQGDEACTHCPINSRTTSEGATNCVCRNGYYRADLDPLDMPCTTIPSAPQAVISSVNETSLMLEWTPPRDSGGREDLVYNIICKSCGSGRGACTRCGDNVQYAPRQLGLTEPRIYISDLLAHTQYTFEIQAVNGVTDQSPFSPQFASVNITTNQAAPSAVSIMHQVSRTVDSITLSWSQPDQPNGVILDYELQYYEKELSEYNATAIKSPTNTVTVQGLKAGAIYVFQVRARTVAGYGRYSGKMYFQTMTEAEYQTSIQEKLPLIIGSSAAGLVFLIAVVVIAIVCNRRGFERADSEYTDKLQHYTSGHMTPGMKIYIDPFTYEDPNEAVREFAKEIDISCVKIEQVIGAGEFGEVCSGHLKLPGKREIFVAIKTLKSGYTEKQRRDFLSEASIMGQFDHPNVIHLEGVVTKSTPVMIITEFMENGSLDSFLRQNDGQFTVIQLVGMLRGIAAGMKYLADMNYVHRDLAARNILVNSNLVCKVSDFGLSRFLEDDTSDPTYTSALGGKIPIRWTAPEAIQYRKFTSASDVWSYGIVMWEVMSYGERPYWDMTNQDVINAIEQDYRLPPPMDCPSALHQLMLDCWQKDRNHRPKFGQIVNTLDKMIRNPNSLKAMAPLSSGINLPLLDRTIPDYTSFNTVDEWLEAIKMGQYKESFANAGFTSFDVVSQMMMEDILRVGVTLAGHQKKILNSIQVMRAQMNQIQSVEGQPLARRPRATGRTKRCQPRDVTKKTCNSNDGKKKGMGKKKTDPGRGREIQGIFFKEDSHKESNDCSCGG

| Sequence | phosphorylation enrichment |
| --- | --- |
| LKGQVYILGGE [ASS1_Y359_R363G] | 1.07 |
| IKIMGYFIRTI [IDS_Y490_S491F] | 0.561 |
| EMFNPYFGLFE [NEDD4L_Y679_YF] | 1.88 |
| ATPSRYMTFLH [DYNC2H1_Y2872] | 0.403 |
| YGTAQYCCRMG [LRRK2_Y2023_I2020T] | 9.81 |
| QKTGDYYDLYG [PTPN11_Y62_N58K] | 6.98 |
| KRNSLYSFSDH [CCDC82_Y331_Q327R] | 0.379 |
| PSQRRYVYYYS [PTEN_Y174] | 0.459 |
| RNLLIYTEFGK [HGD_Y166_G161R] | 1.12 |
| SVGGCYEQLFV [MC4R_Y41_D37V] | 0.661 |
| RWHEGYRQTPR [CD44_Y412_K417R] | 0.383 |
| HNLDYYKKTTN [FGFR3_Y648] | 0.59 |
| TTKGAYSLSIR [YES1_Y194] | 0.414 |
| KRRGPYEMSPS [PLPP7_Y172_T174M] | 0.371 |
| KGEDFYCVTCP [FHL1_Y149_H154P] | 0.589 |
| TRSFKCLLLSM [NF1_Y491_Y491C_YF] | 0.581 |
| HYPDVYAWEQL [ALX3_Y181_R183W] | 0.865 |

| Sequence | phosphorylation enrichment |
| --- | --- |
| EILLSYLRTGY [TGM1_Y365] | 0.612 |
| QRDSSYFWEIE [RAF1_Y340_YF] | 0.968 |
| WSQAMYPDLGP [STARD8_Y330_R327Q] | 0.636 |
| AKKKMYSHKTK [AGXT_Y231_R233H] | 0.823 |
| GRKTLYSFFSP [UNG_Y8_Q4R] | 0.603 |
| GSERRYSREGG [PTPRN2_Y139] | 0.413 |
| KACKHYLTTRT [ZBTB5_Y118] | 0.507 |
| GQLIFYAPPEW [CNTN6_Y315] | 3.08 |
| IDFARYWHGDD [MMP11_Y162] | 0.504 |
| VSFDEYRFRSF [CFTR_Y515_V520F_YF] | 0.568 |
| QLATEYVFSDF [PANX1_Y10] | 0.62 |
| YRRITYHNWRH [PDE6B_Y556] | 0.362 |
| VTRANYFIRDE [GNAS_Y339_K338N] | 0.449 |
| FIGRIYLFLTK [GARS1_Y414_YF] | 0.632 |
| DKTGEYPVPLT [ACADM_Y73_I78T] | 0.438 |
| KNKKDYYDMYE [SLC26A3_Y526] | 0.738 |

Source: the supplement of paper PMC10065799, “High-throughput profiling of sequence recognition by tyrosine kinases and SH2 domains using bacterial peptide display” (eLife, 2023)
